Laboratory results: patent US20260061051A1 (JUNO THERAPEUTICS, published 2026)

What was measured:
[1] = target: T1, Cynomolgus macaque (cyno) DLL3 expressed on 293H cells (cynomolgus macaque, UniProt Q9NYJ7 27-618 (human entry)); assay: flow cytometry on 293H cells expressing cyno DLL3, Alexa 647 anti-human IgG1 secondary, 0.6 to 200 nM
T1 construct: also called Cyno DLL3 cell; cyno DLL3 ORF-GFP
T1 chain: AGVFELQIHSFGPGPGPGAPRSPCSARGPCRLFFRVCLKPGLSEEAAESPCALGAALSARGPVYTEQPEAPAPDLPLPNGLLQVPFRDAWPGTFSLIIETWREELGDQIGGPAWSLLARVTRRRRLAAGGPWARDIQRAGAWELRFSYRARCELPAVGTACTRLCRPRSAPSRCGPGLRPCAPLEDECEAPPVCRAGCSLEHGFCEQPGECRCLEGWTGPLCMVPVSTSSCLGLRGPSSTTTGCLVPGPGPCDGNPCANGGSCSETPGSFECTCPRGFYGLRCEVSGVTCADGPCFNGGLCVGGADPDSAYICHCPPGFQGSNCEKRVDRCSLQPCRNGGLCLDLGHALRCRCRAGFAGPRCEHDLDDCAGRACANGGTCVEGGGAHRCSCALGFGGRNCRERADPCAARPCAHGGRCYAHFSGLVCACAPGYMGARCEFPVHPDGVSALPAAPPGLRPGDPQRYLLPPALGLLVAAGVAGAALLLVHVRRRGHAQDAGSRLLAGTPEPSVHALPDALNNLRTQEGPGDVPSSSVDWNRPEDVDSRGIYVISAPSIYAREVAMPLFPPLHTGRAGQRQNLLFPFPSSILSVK
Experimental: (§1) Human DLL3 or cynomolgus macaque (cyno) DLL3 expressing cell lines were established by transfecting 293H cells with human DLL3 ORF-GFP or cyno DLL3 ORF-GFP plasmids and selecting stable single clone. A dose response curve for the anti-DLL3 mAb-1 binding to 293H cells expressing either human DLL3 or cyno DLL3 was generated by flow cytometry. Cells were incubated with increasing concentrations of anti-DLL3 mAb-1 in the range of 0.6 to 200 nM. Cells were washed then incubated with a secondary antibody (Alexa 647 conjugated anti-human IgG1) to measure the amount of antibody bound to the 293H cells. A dose response curve was fitted from the data using the non-linear regression function in GraphPad Prism version 8. Half-maximal concentration (EC₅₀) value was calculated from the dose response curve.

[2] = target: T2, Human DLL3 expressed on 293H cells (human, UniProt Q9NYJ7 27-618); assay: flow cytometry on 293H cells expressing human DLL3, Alexa 647 anti-human IgG1 secondary, 0.6 to 200 nM
T2 construct: also called Human DLL3 cell; human DLL3 ORF-GFP
T2 sequence: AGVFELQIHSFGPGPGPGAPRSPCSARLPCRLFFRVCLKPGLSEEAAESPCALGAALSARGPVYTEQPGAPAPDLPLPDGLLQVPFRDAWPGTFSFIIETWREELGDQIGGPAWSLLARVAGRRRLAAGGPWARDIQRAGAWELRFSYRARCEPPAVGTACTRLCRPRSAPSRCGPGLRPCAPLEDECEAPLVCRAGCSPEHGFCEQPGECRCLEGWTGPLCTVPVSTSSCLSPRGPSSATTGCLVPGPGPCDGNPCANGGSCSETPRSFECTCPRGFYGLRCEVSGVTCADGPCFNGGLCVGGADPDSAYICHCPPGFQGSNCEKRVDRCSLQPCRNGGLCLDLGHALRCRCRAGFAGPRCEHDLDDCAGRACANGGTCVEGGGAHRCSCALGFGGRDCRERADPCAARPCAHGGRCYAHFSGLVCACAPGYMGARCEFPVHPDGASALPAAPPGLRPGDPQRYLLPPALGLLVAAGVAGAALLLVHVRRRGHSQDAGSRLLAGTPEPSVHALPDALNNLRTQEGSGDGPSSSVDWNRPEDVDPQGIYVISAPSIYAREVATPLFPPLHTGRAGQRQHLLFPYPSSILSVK
Experimental: as §1

[3] = target: T3, Human DLL3 (hDLL3) antigen (human, UniProt Q9NYJ7 27-492); assay: SPR, Biacore 8K, antibody captured on protein G chip, hDLL3 as analyte, multi-cycle
T3 construct: Soluble analyte in SPR; also called hDLL3 protein; soluble target antigen DLL3
T3 sequence: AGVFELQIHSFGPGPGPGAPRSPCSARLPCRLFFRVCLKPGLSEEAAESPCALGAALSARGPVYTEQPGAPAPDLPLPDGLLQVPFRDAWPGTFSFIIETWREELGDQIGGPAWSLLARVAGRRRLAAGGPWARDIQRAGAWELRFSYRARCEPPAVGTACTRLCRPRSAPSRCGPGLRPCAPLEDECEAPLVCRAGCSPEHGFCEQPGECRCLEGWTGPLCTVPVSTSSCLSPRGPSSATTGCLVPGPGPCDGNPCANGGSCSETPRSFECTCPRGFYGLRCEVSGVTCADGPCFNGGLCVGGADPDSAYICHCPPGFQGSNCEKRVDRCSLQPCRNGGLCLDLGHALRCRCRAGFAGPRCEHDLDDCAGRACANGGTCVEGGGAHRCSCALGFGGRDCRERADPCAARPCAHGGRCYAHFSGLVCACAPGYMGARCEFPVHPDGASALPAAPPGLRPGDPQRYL
Experimental: The Biacore SPR 8K machine was used for kinetics binding analysis. The sensor surface of a protein G chip (series s Cat #29179315) was used to capture the ligands. 2 μg/ml of purified anti-DLL3 antibody was diluted in running buffer (0.01M HEPES, 0.15 NaCl, 3 mM EDTA, 0.005% Tween-20). The diluted antibody was then injected at a flow rate of 10 μL/min for 60 seconds. Human DLL3 (hDLL3) antigen was diluted in the same running buffer to 6 concentrations (30, 10, 3.33, 1.11, 0.37 and 0 nM). hDLL3 was then injected on all channels (with each channel having its own reference point) at a flow rate of 30 uL/min for an association phase of 300 seconds, followed by 600 seconds of dissociation. 6 cycles of running analyte were repeated according to analyte concentrations in ascending order. After each cycle of interaction analysis, the sensor chip surface was regenerated completely with Glycine-HCL pH 1.5 at a flow rate of […] for 60 s. The binding of the anti-DLL3 antibody and hDLL3 protein was analyzed by multi-cycle method.

EC50 [1]: 0.0104 µM
EC50 [2]: 0.0156 µM
Kd [3]: 0.0588 µM
koff [3]: 0.0137 s⁻¹
kon [3]: 233000 M⁻¹ s⁻¹
B1: DLL3-mAb-1 (antibody, human IgG1, kappa, V domains shown)
VH: QVQLQESGPGLVKPSQTLSLTCTVSGDSISSDGYYWSWIRQHPGKGLEWIGYIYYSGNTYYNPSLKSRVTISVDTSKNQFSLKLTSVTAADTAIYYCAIDTASALAYWGQGTLVTVSS
VL: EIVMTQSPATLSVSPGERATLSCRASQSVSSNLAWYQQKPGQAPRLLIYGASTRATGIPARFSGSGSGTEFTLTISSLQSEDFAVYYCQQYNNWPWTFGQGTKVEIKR
notes: It was captured on a protein G chip and detected with anti-human IgG1, and it is a fully human antibody with a fixed human kappa light chain; also called anti-DLL3 mAb-1; anti-DLL3 antibody DLL3-mAb-1
